Reference: patent US20230061378A1 (SUZHOU ALPHAMAB, published 2023)

Columns and labels:
pertussis toxin (PT) [1] = target: T1, pertussis toxin (PT) (Bordetella pertussis, UniProt P04977 35-269; P04978 28-226; P04979 29-227; P0A3R5 43-152; P04981 35-133); assay: cell-based or functional assay
pertussis toxin (PT) [2] = target: T1, pertussis toxin (PT); assay: BLI, antibody on AHC biosensor, PTpuri 6.25-100 nM in solution
pertussis toxin (PT) [3] = target: T1, pertussis toxin (PT); assay: BLI in-tandem binning on PT-biotin; competitor (Ab1, bound first): 11E6
pertussis toxin (PT) [4] = target: T1, pertussis toxin (PT); assay: BLI in-tandem binning on PT-biotin; competitor (Ab1, bound first): 1B7

Binder | Minimum neutralizing concentration (CHO-K1 cells with PT toxin) (pertussis toxin (PT) [1]) [µg/mL] | Kd (pertussis toxin (PT) [2]) [pM] | koff (pertussis toxin (PT) [2]) [s⁻¹] | kon (pertussis toxin (PT) [2]) [M⁻¹ s⁻¹] | Ab2 with Ab1/Ab2 without Ab1 (pertussis toxin (PT) [3]) [%] | Ab2 with Ab1/Ab2 without Ab1 (pertussis toxin (PT) [4]) [%]
11E6 (antibody, V domains shown) VH: EVKVVESGGGLVQPGGSLRLSCTTSGFTFTDYYVSWVRQPPGKALEWLGFIRNKVNGYTTEFSSSVKGRFTISRDNSQSILYLQMNTLRVEDSATYYCARVSYYGRGWYFDYWGQGTTLTVSS VL: DIVMTQSTSSLSASLGDRVTISCRASQDIDNYLSWFQQKPDGTVKLLIYYTSRLHSGVPSRFSGSGSGTDYSLTISSLDQEDIATYFCQQGNTFPWTFGGGTKLEIK | 0.8 | < 1 | < 1e-07 | 311000 | 0.2 | 
1B7 (antibody, V domains shown) VH: QVQLQQPGSELVRPGASVKLSCKASGYKFTSYWMHWVKQRPGQGLEWIGNIFPGSGSTNYDEKFNSKATLTVDTSSNTAYMQLSSLTSEDSAVYYCTRWLSGAYFDYWGQGTTLTVSS VL: QIVLTQSPALMSASPGEKVTMTCSASSSVSFMYWYQQKPRSSPKPWIYLTSNLPSGVPARFSGSGSGTSYSLTISSMEAEDAATYYCQQWSSHPPTFGSGTKLEIK | 1.6 | < 1 | < 1e-07 | 387000 |  | 1.1
